Measured values from patent publication US20240050559A1 (ICOSAVAX, published 2024).

Target: T1, compA-01
T1 chain: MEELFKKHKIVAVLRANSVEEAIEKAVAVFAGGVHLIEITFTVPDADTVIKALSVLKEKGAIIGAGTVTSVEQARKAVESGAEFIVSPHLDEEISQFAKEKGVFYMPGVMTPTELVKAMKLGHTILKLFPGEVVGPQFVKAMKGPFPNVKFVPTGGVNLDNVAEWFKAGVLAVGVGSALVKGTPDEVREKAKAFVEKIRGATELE
Assay: particle assembly of purified compB-01 with compA-01

B1: compB-01 (I53-50B sequence) (designed binder)
chain: MNQHSHKDHETVRIAVVRARWHAEIVDACVSAFEAAMRDIGGDRFAVDVFDVPGAYEIPLHARTLAETGRYGAVLGTAFVVNGGIYRHEFVASAVINGMMNVQLNTGVPVLSAVLTPHNYDKSKAHTLLFLALFAVKGMEAARACVEILAAREKIAA
notes: Designed pentameric component B of the two-component I53-50 icosahedral particle; also called I53-50B compB-01; bompB-01
binding result: binds
